Reference: patent US20250197490A1, “ANTI-CORTICOTROPIN-RELEASING HORMONE ANTIBODIES AND USE IN CONGENITAL ADRENAL HYPERPLASIA” (HBM ALPHA THERAPEUTICS, INC., priority 2021, published 2025)
Entries after “also recorded” stand apart in the source; their conditions may differ.

B1: PR302334-26: Series 9 humanized variant of PR302334; VH SEQ ID NO: 277, VL SEQ ID NO: 328 (antibody, V domains shown)
VH: EVQLVESGGGLVQPGGSLRLSCAASGFTFSTYAMSWVRQAPGKGLEWVASIRSGGTTYYPDSVKGRFTISRDNSKNSLYLQMNSLRAEDTAVYYCTRGIDWGQGTTVTVSS
VL: DIVMTQSPDSLAVSLGERATINCKASQSVNNDVAWYQQKPGQPPRLLIYYASNRYTGVPDRFSGSGSGTDFTLTISSLQAEDLAVYFCQQDYSSWTFGGGTKVEIK
modifications: PR302334-18 VH, PR302334-26 VH, PR302334-27 VH; PR302334-10 VL, PR302334-24 VL, PR302334-26 VL, PR302334-4 VL
B2: PR302038: humanized variant of PR301777; VH SEQ ID NO: 256, VL SEQ ID NO: 311 (antibody, V domains shown)
VH: EMQLVESGGGLVQPGGSLRLSCAASGFTFSNYWMNWVRQAPGKGLEWVAEIRLKSNNYATHYAESVKGRFTISRDDSKSSVYLQMNSLKTEDTAVYYCTVGTLVYWGQGTLVTVSS
VL: EIVLTQSPATLSLSPGERATLSCRASQSVSTSTYNYMHWFQQKPGQAPRLLIKFASNLESGIPARFSGSGSGTDFTLTISSLEPEDTAVYYCQHSWEIPYTFGQGTKLEIK
modifications: PR302036 VH, PR302038 VH, PR302041 VH; PR302031 VL, PR302038 VL, PR302045 VL, PR302052 VL, PR302066 VL
B3: PR302334-24: humanized variant of PR302334; VH SEQ ID NO: 275, VL SEQ ID NO: 328 (antibody, V domains shown)
VH: EVQLVESGGGLVKPGGSLRLSCAASGFTFSTYAMSWVRQAPGKGLEWVASIRSGGTTYYPDSVKGRFTISRDNAKNSLYLQMNSLRAEDTAVYYCTRGIDWGQGTTVTVSS
VL: DIVMTQSPDSLAVSLGERATINCKASQSVNNDVAWYQQKPGQPPRLLIYYASNRYTGVPDRFSGSGSGTDFTLTISSLQAEDLAVYFCQQDYSSWTFGGGTKVEIK
modifications: PR302334-16 VH, PR302334-24 VH, PR302334-25 VH; PR302334-10 VL, PR302334-24 VL, PR302334-26 VL, PR302334-4 VL

Experiments:
[1] = target: T1, human UCN1 (Homo sapiens, UniProt P55089); experiment: Human UCN1 ELISA binding; settings: in words
T1 sequence (P55089 83-122 limits assumed): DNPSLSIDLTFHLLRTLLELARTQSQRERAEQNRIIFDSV
Description: Streptavidin (Thermo, Cat: 21125) was diluted in PBS to a concentration of 2 μg/ml. 100 μl of diluted streptavidin was added per well to ELISA microplates, and the plates were incubated overnight at 4° C. Plates were blocked with ELISA blocking solution (containing 2% w/v BSA, 0.05% (v/v) Tween-20, pH 7.4 PBS buffer) at 37° C. for 1 hour, and then incubated with 0.5 μg/mL CRH (NT biotin), 0.5 μg/mL CRH (CT biotin), 1 μg/mL human UCN1 (NT biotin), or 1 μg/mL human UCN1 (CT biotin) for 1 hour at 37° C. Plates were then washed and incubated with diluted anti-CRH antibody (Ab) at 15 μg/ml (100 nM, 10 diluted, 8 points) for 1 hour at 37° C. Subsequently, plates were washed and incubated with HRP-conjugated goat anti-human IgG (H+L) antibody (Jackson, Cat: 109-035-088) at 37° C. for 1 hour. […] 100 μL of ELISA stopping solution (Solarbio, Cat #: C1058) was added to terminate the reaction, and the optical density at 450 nm (OD450 nm) was determined by an ELISA plate reader (Molecular Devices, Spectra max 384 plus).
Streptavidin (Thermo, Cat: 21125) was diluted in PBS with a concentration of 2 μg/mL. […] 100 μL of ELISA stopping solution (Solarbio, Cat #: C1058) was then added to terminate the reaction, and the OD450 nm was determined by an ELISA plate reader (Molecular Devices, Spectra max 384 plus).

[2] = tested on: Mrap1 KO mice; experiment: Mrap1 KO mice constitutively high ACTH model; format: in vivo, mouse; settings: for plasma ACTH concentration in Mrap1 KO mice: single dose of mAb 20 mg/kg
[3] = tested on: wildtype female C57BL/6 mice; experiment: Wildtype mice restraint-stress model (ACTH and corticosterone); format: in vivo, mouse
Description: 8-10 week old wildtype female C57BL/6 mice were obtained from Charles River Laboratories. Mrap1 KO mice were obtained from Queen Mary University of London, UK. SSR125543A, a small molecule CRHR1 antagonist, was obtained from Axon Medchem (Cat #Axon 1799). Mouse Corticosterone (55-Corms-E01) and adrenocorticotropic hormone (ACTH) ELISA kits (21-ACTHU-E01) were obtained from ALPCO, USA. All procedures were carried out in accordance with the Guide for the Care and Use of Laboratory Animals of the National Institutes of Health. Protocols were approved by Charles River Laboratories Institutional Animal Care and Use Committee (IACUC).
To determine the effect of nonpainful physical restraint upon stress responses, mice were restrained in 50 ml polypropylene ventilated tubes in which the tip was cut off with a razor blade to allow the mouse to breathe easily for 15-20 minutes. A mouse was directed to the open tube and crawled in. A piece of paper towel was put behind the mouse so that it could not back out, and the cap was screwed on. The mouse was placed back in its cage, ventral size down on the bedding. This stressor is not considered painful, as mice are confined to a limited space (in a ventilated restraint tube) but not in an unnatural physical position. The investigator was present in the room during the entire procedure. At the end of the procedure, the mouse was removed by the tail.
On day 1, each mouse was injected intraperitoneally with 20 mg/kg of anti-CRH mAbs, hIgG1 or PBS (5 mice per group). On day 2 or 3, and 14 each mouse was subjected to physical restraint-stress described above for 15 or 20 min. Immediately after restraint-stress, 200 μl of blood was collected in EDTA tubes from the submandibular vein of each mouse. Plasma was separated using a refrigerated centrifuge (4° C. at 500×g for 10 min) and snap-frozen in dry ice for subsequent ACTH and corticosterone ELISA measurement.
On day 1, one half of mice were injected IP with 20 mg/kg of anti-CRH Ab or hIgG1 (5 mice per group). […]

Molecule	binding to human UCN1 peptides in ELISA [1]	plasma ACTH concentration in Mrap1 KO mice [2]	plasma ACTH concentrations in Mrap1 KO mice, dose dependent ([2]; 20 mg/kg and 5 mg/kg, day 2 and day 16)	duration of the effects of the mAb ([3]; wildtype mice restraint model)	extent of inhibition of ACTH and corticosterone versus SSR125543A ([3]; wildtype mice restraint model, SSR125543A 30 mg/kg)	efficacy versus SSR125543A in reducing plasma ACTH and corticosterone levels ([3]; wildtype mice restraint stress, mAb 20 mg/kg and 5 mg/kg, SSR125543A 30 mg/kg)	efficacy versus SSR125543A in reducing plasma ACTH levels ([2]; Mrap1 KO mice, PR302064 20 mg/kg, PR302334-24 20, 10 and 5 mg/kg, SSR125543A 30 mg/kg)	extent of inhibition of ACTH versus SSR125543A ([2]; Mrap1 KO mice, SSR125543A 30 mg/kg)
B1	except for PR302334-26, bound to human UCN1 peptides	markedly reduced						
B2			reduced					
B3		significantly reduced		at least 17 days	more complete inhibition	more efficacious; also recorded: superior efficacy	more efficacious; also recorded: superior efficacy	more complete inhibition
